From PMC6555819, “Comprehensive study of nuclear receptor DNA binding provides a revised framework for understanding receptor specificity”
Numbering of substitutions follows the chain as printed.

B1: NRC3_wobSeed112_DR4_C22T_o1 (dsDNA)
DNA 1: GCTAGCCTAGGTCAGATCGGGTCAGTATACGCTATAGCGATTGACAGCGTAGAATGAAGG
DNA 2: CCTTCATTCTACGCTGTCAATCGCTATAGCGTATACTGACCCGATCTGACCTAGGCTAGC
B2: NRC3_wobSeed112_DR4_T8G_o1 (dsDNA)
DNA 1: B1 DNA 1 with T8G, T22C
DNA 2: B1 DNA 2 with A39G, A53C
B3: NRC3_wobSeed103_DR4_A13T_o1 (dsDNA)
DNA 1: GCGCATATAGGTTATACAAGGTGAAAGTCCGATTGTGCGATTGACAGCGTAGAATGAAGG
DNA 2: CCTTCATTCTACGCTGTCAATCGCACAATCGGACTTTCACCTTGTATAACCTATATGCGC
B4: NRC3_wobSeed103_DR4_A16T_o1 (dsDNA)
DNA 1: B3 DNA 1 with T13A, A16T
DNA 2: B3 DNA 2 with T45A, A48T
B5: NRC3_wobSeed37_DR1_A25G_o1 (dsDNA)
DNA 1: GCCGTCCAAGGTCAAAGGTCAGTGGAGAGATGACGGGCGATTGACAGCGTAGAATGAAGG
DNA 2: CCTTCATTCTACGCTGTCAATCGCCCGTCATCTCTCCACTGACCTTTGACCTTGGACGGC
B6: NRC3_wobSeed98_DR4_T8G_o1 (dsDNA)
DNA 1: GCACTAGGTGGTCAGCTGAGGTCACACACAATTCGGGCGATTGACAGCGTAGAATGAAGG
DNA 2: CCTTCATTCTACGCTGTCAATCGCCCGAATTGTGTGTGACCTCAGCTGACCACCTAGTGC
B7: NRC3_wobSeed136_DR5_T12C_o1 (dsDNA)
DNA 1: GCTAGCCTAGGCCATTCAGGGGCCAGTATAGAAAGCGCGATTGACAGCGTAGAATGAAGG
DNA 2: CCTTCATTCTACGCTGTCAATCGCGCTTTCTATACTGGCCCCTGAATGGCCTAGGCTAGC
B8: NRC3_wobSeed52_DR2_C21G_o1 (dsDNA)
DNA 1: GCCCTACTGGGCCATCAGGTGATTGATATCAACGTTGCGATTGACAGCGTAGAATGAAGG
DNA 2: CCTTCATTCTACGCTGTCAATCGCAACGTTGATATCAATCACCTGATGGCCCAGTAGGGC
B9: NRC3_wobSeed110_DR4_T19A_o1 (dsDNA)
DNA 1: GCTCTGCTAGGTCAACGAAGGTCAGCTAATCTGCTAGCGATTGACAGCGTAGAATGAAGG
DNA 2: CCTTCATTCTACGCTGTCAATCGCTAGCAGATTAGCTGACCTTCGTTGACCTAGCAGAGC
B10: NRC3_wobSeed138_DR5_T12G_o1 (dsDNA)
DNA 1: GCGATACAGGGGCAGCTAGAGGCCAGAGTATGGAAAGCGATTGACAGCGTAGAATGAAGG
DNA 2: CCTTCATTCTACGCTGTCAATCGCTTTCCATACTCTGGCCTCTAGCTGCCCCTGTATCGC
B11: NRC3_wobSeed2_DR0_G16C_o1 (dsDNA)
DNA 1: GCCCTAGTTGGTCAACGTCACACACGCTATAGGTACGCGATTGACAGCGTAGAATGAAGG
DNA 2: CCTTCATTCTACGCTGTCAATCGCGTACCTATAGCGTGTGTGACGTTGACCAACTAGGGC
B12: NRC3_wobSeed118_DR4_G24A_o1 (dsDNA)
DNA 1: GCTTACCAAGGTGAGCTGAGGTCATTGATCCAACTCGCGATTGACAGCGTAGAATGAAGG
DNA 2: CCTTCATTCTACGCTGTCAATCGCGAGTTGGATCAATGACCTCAGCTCACCTTGGTAAGC
B13: NRC3_wobSeed118_DR4_G15C_o1 (dsDNA)
DNA 1: B12 DNA 1 with G15C, A24G
DNA 2: B12 DNA 2 with T37C, C46G
B14: NRC3_wobSeed118_DR4_A8G_o1 (dsDNA)
DNA 1: B12 DNA 1 with A8G, A24G
DNA 2: B12 DNA 2 with T37C, T53C
B15: NRC3_wobSeed114_DR4_G17C_o1 (dsDNA)
DNA 1: GCAATACAGGGTCATCCTAGGCCAGAGTACGCACAGGCGATTGACAGCGTAGAATGAAGG
DNA 2: CCTTCATTCTACGCTGTCAATCGCCTGTGCGTACTCTGGCCTAGGATGACCCTGTATTGC
B16: NRC3_wobSeed114_DR4_T18G_o1 (dsDNA)
DNA 1: B15 DNA 1 with C17G, T18G
DNA 2: B15 DNA 2 with A43C, G44C
B17: NRC3_wobSeed73_DR3_A16T_o1 (dsDNA)
DNA 1: GCCAAACTAGGTCACTGAGGTCAAAGTCCGTGCGTAGCGATTGACAGCGTAGAATGAAGG
DNA 2: CCTTCATTCTACGCTGTCAATCGCTACGCACGGACTTTGACCTCAGTGACCTAGTTTGGC
B18: NRC3_wobSeed72_DR2_G18C_o1 (dsDNA)
DNA 1: GCTCGAGTAGGTTACGGCGGCATTCAGGGATGAAGAGCGATTGACAGCGTAGAATGAAGG
DNA 2: CCTTCATTCTACGCTGTCAATCGCTCTTCATCCCTGAATGCCGCCGTAACCTACTCGAGC
B19: NRC3_wobSeed113_DR4_T8C_o1 (dsDNA)
DNA 1: GCATATGCAGGTTAGCTGGGGTCATTCAGACTAGGCGCGATTGACAGCGTAGAATGAAGG
DNA 2: CCTTCATTCTACGCTGTCAATCGCGCCTAGTCTGAATGACCCCAGCTAACCTGCATATGC
B20: NRC3_wobSeed113_DR4_G29T_o1 (dsDNA)
DNA 1: B19 DNA 1 with C8T, G29T
DNA 2: B19 DNA 2 with C32A, G53A
B21: NRC3_wobSeed101_DR4_C18G_o1 (dsDNA)
DNA 1: GCCCTTACGGGTCACTCGAGGTTATAGCATCGGAGTGCGATTGACAGCGTAGAATGAAGG
DNA 2: CCTTCATTCTACGCTGTCAATCGCACTCCGATGCTATAACCTCGAGTGACCCGTAAGGGC
B22: NRC3_wobSeed117_DR4_C16T_o1 (dsDNA)
DNA 1: GCCGTCAAAGTTCAATTAAGGTAACGTAAAGCACGCGCGATTGACAGCGTAGAATGAAGG
DNA 2: CCTTCATTCTACGCTGTCAATCGCGCGTGCTTTACGTTACCTTAATTGAACTTTGACGGC
B23: NRC3_wobSeed100_DR4_A17T_o1 (dsDNA)
DNA 1: GCCCTACTGGGCCACGTAAGGTCATTGATTCAGTGAGCGATTGACAGCGTAGAATGAAGG
DNA 2: CCTTCATTCTACGCTGTCAATCGCTCACTGAATCAATGACCTTACGTGGCCCAGTAGGGC
B24: NRC3_wobSeed49_DR2_A15T_o1 (dsDNA)
DNA 1: GCCAAACTAGGTCATGAGGTCAAAGTCCGCTTCCCGGCGATTGACAGCGTAGAATGAAGG
DNA 2: CCTTCATTCTACGCTGTCAATCGCCGGGAAGCGGACTTTGACCTCATGACCTAGTTTGGC
B25: NRC3_wobSeed106_DR4_G15A_o1 (dsDNA)
DNA 1: GCCTCGAAAGGTCGATTGAGGTGAGTATACGGATAAGCGATTGACAGCGTAGAATGAAGG
DNA 2: CCTTCATTCTACGCTGTCAATCGCTTATCCGTATACTCACCTCAATCGACCTTTCGAGGC
B26: NRC3_wobSeed106_DR4_T4G_o1 (dsDNA)
DNA 1: B25 DNA 1 with T4G, A15G
DNA 2: B25 DNA 2 with T46C, A57C
B27: NRC3_wobSeed120_DR4_A17T_o1 (dsDNA)
DNA 1: GCCCGAGTAGGTTACGTGGGGGCATTCAGTGCGAATGCGATTGACAGCGTAGAATGAAGG
DNA 2: CCTTCATTCTACGCTGTCAATCGCATTCGCACTGAATGCCCCCACGTAACCTACTCGGGC
B28: NRC3_wobSeed122_DR5_C24A_o1 (dsDNA)
DNA 1: GCGCTAGTTGGTCAGTAAAAGGTAACACACCGGTCGGCGATTGACAGCGTAGAATGAAGG
DNA 2: CCTTCATTCTACGCTGTCAATCGCCGACCGGTGTGTTACCTTTTACTGACCAACTAGCGC
B29: NRC3_wobSeed108_DR4_T23C_o1 (dsDNA)
DNA 1: GCGCGACTGGGGCAAAGCAGGTCACCATAAGGTTGGGCGATTGACAGCGTAGAATGAAGG
DNA 2: CCTTCATTCTACGCTGTCAATCGCCCAACCTTATGGTGACCTGCTTTGCCCCAGTCGCGC
B30: NRC3_wobSeed121_DR5_T8C_o1 (dsDNA)
DNA 1: GCCAAACCAGGTCACCGGAAGGTCAAAGTCCGCATGGCGATTGACAGCGTAGAATGAAGG
DNA 2: CCTTCATTCTACGCTGTCAATCGCCATGCGGACTTTGACCTTCCGGTGACCTGGTTTGGC
B31: NRC3_wobSeed102_DR4_C12T_o1 (dsDNA)
DNA 1: GCCCTAGCAGGTCAATCTGGGTCACTCAAGGCTTGAGCGATTGACAGCGTAGAATGAAGG
DNA 2: CCTTCATTCTACGCTGTCAATCGCTCAAGCCTTGAGTGACCCAGATTGACCTGCTAGGGC
B32: NRC3_wobSeed85_DR3_A16C_o1 (dsDNA)
DNA 1: GCCGTCCAAGGTCAGCGAGGTCAGTGAATGCCGAGTGCGATTGACAGCGTAGAATGAAGG
DNA 2: CCTTCATTCTACGCTGTCAATCGCACTCGGCATTCACTGACCTCGCTGACCTTGGACGGC
B33: NRC3_wobSeed119_DR4_T21G_o1 (dsDNA)
DNA 1: GCGGAACGAGGGCATTCGAGGTGATAGCATGGCGATGCGATTGACAGCGTAGAATGAAGG
DNA 2: CCTTCATTCTACGCTGTCAATCGCATCGCCATGCTATCACCTCGAATGCCCTCGTTCCGC
B34: NRC3_wobSeed130_DR5_G24C_o1 (dsDNA)
DNA 1: GCCTCGAAAGGTCGTGCTCAGGTCAGTATACCAAACGCGATTGACAGCGTAGAATGAAGG
DNA 2: CCTTCATTCTACGCTGTCAATCGCGTTTGGTATACTGACCTGAGCACGACCTTTCGAGGC

biological target: THRa:RXRa (Homo sapiens, UniProt P10827;P19793 full;full); test: no ligand; PBM; 90 nM : 90 nM RXRa; PBS pH 7.4, 2% milk, 0.02% Triton X-100, 1 mM DTT, BSA, 0.4 mg/ml salmon testes DNA; settings: tags: His kept;His cleaved; copies: 1;1; label: surface-attached array probe
Sequence (P10827 other isoform, or with tags, fused parts or gaps, chain 1 of 2): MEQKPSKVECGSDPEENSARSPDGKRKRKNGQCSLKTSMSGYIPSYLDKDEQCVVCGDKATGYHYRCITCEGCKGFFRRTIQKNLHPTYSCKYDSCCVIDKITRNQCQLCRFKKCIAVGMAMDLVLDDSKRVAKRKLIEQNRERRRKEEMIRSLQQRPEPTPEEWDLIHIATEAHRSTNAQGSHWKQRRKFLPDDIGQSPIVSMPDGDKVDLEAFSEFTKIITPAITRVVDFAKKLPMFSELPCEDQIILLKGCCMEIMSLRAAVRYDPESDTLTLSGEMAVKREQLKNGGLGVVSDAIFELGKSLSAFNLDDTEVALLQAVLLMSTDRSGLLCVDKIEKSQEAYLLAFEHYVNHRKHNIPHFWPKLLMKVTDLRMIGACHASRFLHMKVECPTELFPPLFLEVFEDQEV
Sequence (P19793 whole entry, chain 2 of 2): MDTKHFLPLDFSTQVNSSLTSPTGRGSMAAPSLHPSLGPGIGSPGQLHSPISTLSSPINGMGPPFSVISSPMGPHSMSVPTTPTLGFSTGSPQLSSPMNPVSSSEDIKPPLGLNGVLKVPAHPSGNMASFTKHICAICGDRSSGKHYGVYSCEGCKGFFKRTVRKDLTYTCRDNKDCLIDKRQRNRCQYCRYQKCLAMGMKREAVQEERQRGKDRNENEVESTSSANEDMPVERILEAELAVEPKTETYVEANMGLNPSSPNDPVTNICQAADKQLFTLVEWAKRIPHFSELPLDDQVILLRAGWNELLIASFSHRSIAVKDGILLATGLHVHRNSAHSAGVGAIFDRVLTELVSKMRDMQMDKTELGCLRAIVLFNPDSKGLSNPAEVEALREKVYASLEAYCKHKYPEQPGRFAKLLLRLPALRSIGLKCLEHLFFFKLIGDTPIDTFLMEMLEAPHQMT

Binder | binding signal
B1 | 5.04 PBM z-score against 500 random probes
B2 | 4.92 PBM z-score against 500 random probes
B3 | 5.07 PBM z-score against 500 random probes
B4 | 4.81 PBM z-score against 500 random probes
B5 | 5.12 PBM z-score against 500 random probes
B6 | 5.35 PBM z-score against 500 random probes
B7 | 0.47 PBM z-score against 500 random probes
B8 | 0.39 PBM z-score against 500 random probes
B9 | 5.01 PBM z-score against 500 random probes
B10 | 0.48 PBM z-score against 500 random probes
B11 | 0.39 PBM z-score against 500 random probes
B12 | 5.35 PBM z-score against 500 random probes
B13 | 5.05 PBM z-score against 500 random probes
B14 | 5.02 PBM z-score against 500 random probes
B15 | 5.26 PBM z-score against 500 random probes
B16 | 5.17 PBM z-score against 500 random probes
B17 | 5.07 PBM z-score against 500 random probes

Binder | binding signal
B18 | 0.41 PBM z-score against 500 random probes
B19 | 5.52 PBM z-score against 500 random probes
B20 | 5.52 PBM z-score against 500 random probes
B21 | 5.34 PBM z-score against 500 random probes
B22 | 5.49 PBM z-score against 500 random probes
B23 | 4.98 PBM z-score against 500 random probes
B24 | 4.8 PBM z-score against 500 random probes
B25 | 5.36 PBM z-score against 500 random probes
B26 | 5.31 PBM z-score against 500 random probes
B27 | 4.87 PBM z-score against 500 random probes
B28 | 0.45 PBM z-score against 500 random probes
B29 | 4.79 PBM z-score against 500 random probes
B30 | 4.95 PBM z-score against 500 random probes
B31 | 5.18 PBM z-score against 500 random probes
B32 | 4.81 PBM z-score against 500 random probes
B33 | 5.22 PBM z-score against 500 random probes
B34 | 4.84 PBM z-score against 500 random probes
